Experimental data taken from paper PMC2916699 (Journal of molecular biology, 2009).
Where no end group is shown, it is not given here. The star is where a group is joined. Dansyl = CN(C)c1cccc2c(S(=O)(=O)*)cccc12

Biological target: protein farnesyltransferase (FTase), wild type (UniProt Q04631 1-377; Q02293 1-437)
Assay: fluorescence polarisation

Row | Binder | Kd [nM]
1 | Dansyl-TKCAVQ [dansyl-TKCAVQ] | 13 ± 3
2 | Dansyl-TKCSLM [dansyl-TKCSLM] | 8 ± 2
3 | Dansyl-TKCSIM [dansyl-TKCSIM] | 6 ± 2
4 | Dansyl-TKCRIS [dansyl-TKCRIS] | 12 ± 2
5 | Dansyl-TKCTLQ [dansyl-TKCTLQ] | 7 ± 1
6 | Dansyl-TKCLVM [dansyl-TKCLVM] | 6 ± 2
7 | Dansyl-TKCYVM [dansyl-TKCYVM] | 12 ± 4
8 | Dansyl-TKCNLQ [dansyl-TKCNLQ] | 8 ± 1
9 | Dansyl-TKCTMS [dansyl-TKCTMS] | 6 ± 2
10 | Dansyl-TKCVVT [dansyl-TKCVVT] | 7 ± 3

Continued by falling Kd, values first:

Row | Kd [nM] | Binder
11 | 6 ± 1 | Dansyl-TKCTKF [dansyl-TKCTKF]
12 | 5 ± 2 | Dansyl-TKCSLC (cysteine pairing not given here) [dansyl-TKCSLC]
13 | 5 ± 1 | Dansyl-TKCNIM [dansyl-TKCNIM]
14 | 5 ± 1 | Dansyl-TKCLTS [dansyl-TKCLTS]
15 | 5 ± 2 | Dansyl-TKCIVA [dansyl-TKCIVA]
16 | 3.6 ± 0.7 | Dansyl-TKCGIM [dansyl-TKCGIM]
17 | 3.6 ± 0.8 | Dansyl-TKCITQ [dansyl-TKCITQ]
18 | 3.4 ± 0.8 | Dansyl-TKCSIS [dansyl-TKCSIS]
19 | 3.4 ± 0.7 | Dansyl-TKCSLG [dansyl-TKCSLG]
